Reference: publication PMC2907741 (Biochemistry, 2009)
Like-named read-outs stand apart in the source and are kept apart here. Bridge positions count the residues as written; N and C are the ends. Ends that are not written are not given here.

B1: 8 kDa fragment of plasma gelsolin (173-242), D187N (domain or fragment, human)
chain: ATEVPVSWESFNNGNCFILDLGNNIHQWCGSNSNRYERLKATQVSKGIRDNERSGRARVHVSEEGTEPEA
modifications: disulfide 16-29
B2: 5 kDa fragment of plasma gelsolin (173-225), D187N (domain or fragment, human)
chain: ATEVPVSWESFNNGNCFILDLGNNIHQWCGSNSNRYERLKATQVSKGIRDNER
modifications: disulfide 16-29

Columns and labels:
[1] = target: the molecule itself; test: thioflavin T fluorescence aggregation assay
[2] = target: the molecule itself; test: thioflavin T fluorescence aggregation assay; remark: listed apart in the source

Protein | binding result [1] | binding result [2]
B1 | binds | –
B2 | – | binds
